Measurements reported in patent US20190048095A1 (BIO THERA SOLUTIONS, published 2019).

B1: Batansine-0806 (anti-TROP2 antibody BAT0806 conjugated with 3AA-MDC) (antibody)
light: DIQLTQSPSSLSASVGDRVSITCKASQDVSIAVAWYQQKPGKAPKLLIYSASYRYTGVPDRFSGSGSGTDFTLTISSLQPEDFAVYYCQQHYITPLTFGAGTKVEIKRTVAAPSVFIFPPSDEQLKSGTASVVCLLNNFYPREAKVQWKVDNALQSGNSQESVTEQDSKDSTYSLSSTLTLSKADYEKHKVYACEVTHQGLSSPVTKSFNRGEC
heavy: not shown
modifications: 3AA-MDC (batansine maytansinoid-linker) on cysteine thiols freed by partial TCEP reduction; positions not given
B2: Batansine-0808 (anti-TROP2 antibody BAT0808 conjugated with 3AA-MDC) (antibody, human IgG1, kappa)
light: DIQLTQSPSSLSASVGDRVSITCKASQDVSIAVAWYQQKPGKAPKLLIYSASYRYTGVPDRFSGSGSGTDFTLTISSLQPEDFAVYYCQQHYITPLTFGAGTKVEIKRTVAAPSVFIFPPSDEQLKSGTASVVCLLNNFYPREAKVQWKVDNALQSGNSQESVTEQDSKDSTYSLSSTLTLSKADYEKHKVYACEVTHQGLSSPVTKSFNRGEC
heavy: not shown
modifications: 3AA-MDC on site-mutated (engineered) cysteine(s); position not printed for this antibody; glycan with fucose content of 0-5%
B3: Batansine-0807 (anti-TROP2 antibody BAT0807 conjugated with 3AA-MDC) (antibody, human IgG1, kappa)
light: DIQLTQSPSSLSASVGDRVSITCKASQDVSIAVAWYQQKPGKAPKLLIYSASYRYTGVPDRFSGSGSGTDFTLTISSLQPEDFAVYYCQQHYITPLTFGAGTKVEIKRTVAAPSVFIFPPSDEQLKSGTASVVCLLNNFYPREAKVQWKVDNALQSGNSQESVTEQDSKDSTYSLSSTLTLSKADYEKHKVYACEVTHQGLSSPVTKSFNRGEC
heavy: not shown
modifications: 3AA-MDC on site-mutated (engineered) cysteine(s); position not printed for this antibody
B4: BAT0806-CL2A-SN-38 (anti-TROP2 antibody BAT0806 conjugated with CL2A-SN-38) (antibody, human IgG1, kappa)
light: DIQLTQSPSSLSASVGDRVSITCKASQDVSIAVAWYQQKPGKAPKLLIYSASYRYTGVPDRFSGSGSGTDFTLTISSLQPEDFAVYYCQQHYITPLTFGAGTKVEIKRTVAAPSVFIFPPSDEQLKSGTASVVCLLNNFYPREAKVQWKVDNALQSGNSQESVTEQDSKDSTYSLSSTLTLSKADYEKHKVYACEVTHQGLSSPVTKSFNRGEC
heavy: not shown
modifications: CL2A-SN-38 on cysteine thiols freed by TCEP reduction; positions not given

Tests used:
[1] = biological target: T1, TROP2 (TACSTD2), on TROP2 positive human tumor cell lines MDA-MB-468, A431 and N87 (human, UniProt P09758 27-323); experiment: cell-based or functional assay
T1 sequence (looked up): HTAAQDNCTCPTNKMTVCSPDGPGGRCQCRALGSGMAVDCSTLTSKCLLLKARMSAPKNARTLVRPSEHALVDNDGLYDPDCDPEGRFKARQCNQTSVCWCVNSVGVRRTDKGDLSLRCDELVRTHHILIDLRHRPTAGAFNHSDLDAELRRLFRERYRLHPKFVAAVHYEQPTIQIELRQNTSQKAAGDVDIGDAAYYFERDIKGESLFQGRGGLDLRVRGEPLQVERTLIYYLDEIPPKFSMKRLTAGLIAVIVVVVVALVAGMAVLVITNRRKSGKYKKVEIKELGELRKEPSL

[2] = biological target: T1, TROP2 (TACSTD2), on TROP2 positive …; experiment: cell-based or functional assay; remark: listed apart in the source

Row | Binder | EC50, proliferation inhibition of A431 cells (CCK8, 72 h) [1] | EC50, proliferation inhibition of MDA-MB-468 cells (CCK8, 72 h) [1] | EC50, proliferation inhibition of N87 cells (CCK8, 72 h) [1] | EC50 (nM), synergistic ADCC, A431 with PBMC (PBMC cell:target cell 10:1) [2] | EC50 (nM), cell proliferation, A431 [2] | EC50 (nM), cell proliferation, MDA-MB-468 [2] | EC50 (nM), cell proliferation, N87 [2] | EC50 (nM), synergistic ADCC, A431 with PBMC (PBMC cell:target cell 5:1) [2]
1 | B1 | 0.53 nM | 3.21 nM | 0.34 nM | 0.006 nM | – | – | – | –
2 | B2 | 1.53 nM | 5.61 nM | 1.47 nM | 0.001 nM | 2.89 nM | 1.95 nM | 0.56 nM | –
3 | B3 | 1.73 nM | 2.89 nM | 0.77 nM | 0.011 nM | – | – | – | –
4 | B4 | – | – | – | – | 1.26 nM | 1.84 nM | 1.84 nM | 0.143 nM
